Laboratory results reported in patent publication US20020090696.

Key:
[1] = target: GST-2.5 fusion protein [GST: P08515]

B1: Rat SAPKβ (protein)
chain: MSLHFLYYCSEPTLDVKIAFCQGFDKHVDVSSVVKHYNMSKSKVDNQFYSVEVGDSTFTVLKRYQNLKPIGSGAQGIVCAAYDAVLDRNVAIKKLSRPFQNQTHAKRAYRELVLMKCVNHKNIISLLNVFTPQKTLEEFQDVYLVMELMDANLCQVIQMELDHERMSYLLYQMLCGIKHLHSAGIIHRDLKPSNIVVKSDCTLKILDFGLARTAGTSFMMTPYVVTRYYRAPEVILGMGYKENVDIWSVGCIMGEMVRHKILFPGRDYIDQWNKVIEQLGTPCPEFMKKLQPTVRNYVENRPKYAGLTFPKLFPDSLFPADSEHNKLKASQARDLLSKMLVIDPAKRISVDDALQHPYINVWYDPAEVEAPPPQIYDKQLDEREHTIEEWKELIYKEVMNSEEKTKNGVVKGQPSPSGAAVNSSESLPPSSSVNDISSMSTDQTLASDTDSSLEASAGPLGCCR
Q: Which “phosphorylation of GST-c-Jun in a kinase reaction with c-Jun and rSAPKβ” value (GST [GST: P08515]) does the source give for B1 here?
A: GST alone shows no effect.

Q: And the “in vitro kinase assay, phosphorylation of protein 2.5” value [1]?
A: Rat SAPKβ ... phosphorylates protein 2.5

Q: What about the “in vitro phosphorylation assay” value [1] of the same protein?
A: hJIP1/IB1 is a substrate for JNK3 in the same in vitro phosphorylation assay

Q: What about the “in vitro phosphorylation of a GST c-Jun fusion protein” value [1] of the same protein?
A: this protein greatly reduces phosphorylation of a GST c-Jun fusion protein in a concentration dependent manner

Q: And the “phosphorylation of GST-c-Jun in a kinase reaction with c-Jun and rSAPKβ” value [1]?
A: protein 2.5 shows a dose-dependent inhibition of phosphorylation of GST-c-Jun
